In publication PMC5818060 (Journal of Cell Science, 2018):

How the values were obtained:
[1] = test system: DDX3X-stimulated CK1ε (CK1εΔC); assay: In vitro radioactive kinase assay, DDX3X-stimulated CK1ε activity; assay type: biochemical, human; conditions: recombinant DDX3X, CK1 peptide substrate, radioactive; n=3
Method: (§1) Kinase assays were carried out essentially as described ([Cruciat et al., 2013]). For kinase assays, full-length DDX3X protein was expressed and purified from HEK293T cells as described for the ATPase assay. Deletion constructs were purified from E. coli. The eluted proteins were visualized using Coomassie Blue and the intensity of the protein bands was measured using ImageJ. The amounts used for kinase assays were estimated based on this staining. Where indicated, dsRNA was premixed with proteins at room temperature (RT) for 15 min before subjecting samples to radioactive kinase assays. The CK1 substrate peptide […] for the kinase assay and samples was analyzed using p81 phosphocellulose (Biomol) as described ([Zhai et al., 1992]). 0.3 µM CK1δ/ε-derived and control peptides were used ([Schacherl et al., 2015]). For mass spectrometric analyses DDX3X helicase core (His-DDX3X^168-582) as well as the C-terminal helicase domain (His-DDX3X^414-582) were in vitro phosphorylated by CK1ε. Also, reactions without addition of kinase were performed and analyzed in order to correct for false-positive results. Mass spectrometry data acquisition and analysis of trypsin-digested samples were performed at the Core Unit Mass Spectrometry and Proteomics (Ulm University) essentially as described in [Meng et al. (2016)].

[2] = test system: CK1ε; assay: Mass spectrometric detection of DDX3X phosphorylation by CK1ε in vitro; assay type: biochemical, human; set-up: key to Probability of phosphorylation, T469 (symbol) / Probability of phosphorylation, S470 (symbol) / Probability of phosphorylation, S429 (symbol): –: no phosphorylation detected; conditions: phosphorylated by CK1ε in vitro; tryptic digestion, MS
Method: as §1

[3] = test system: DDX3X; assay: ATPase assay of DDX3X; assay type: biochemical, human; conditions: full-length Flag-DDX3X, dsRNA 17-68 nM, 37°C, 40 min, 1 mM ATP; n=3
Method: For the ATPase assay, Flag-tagged DDX3X full-length constructs were expressed in HEK293T cells. After purifying and eluting DDX3X from the beads, an aliquot of the eluates was resolved by SDS-PAGE in order to monitor the different DDX3X levels via western blotting and ImageJ. Based on this comparison, similar amounts of full-length DDX3X protein were used. Approximately 100 ng Flag-DDX3X protein and 10 ng His-CK1ε were used in a 60 μl reaction mix (reaction buffer: 20 mM Tris-HCl, pH 7.4, 200 mM NaCl, 0.5 mM DTT, 1 mM MgCl2, 1 mM ATP) with dsRNA (17 nM, 34 nM, 68 nM); the reaction was carried out at 37°C for 40 min. To phosphorylate DDX3X, 500 ng His-CK1εΔC or His-CK1εΔC^K38R were added in kinase buffer before eluting the DDX3X protein from the Sepharose magnetic Flag beads (Sigma). Incubation was performed at 37°C for 30 min. Then, beads were washed with 50 mM Tris-HCl, pH 7.5 and 500 mM NaCl before elution with Flag peptide. Termination of the helicase reaction was done with 10 μl of 50% TCA solution added to each reaction followed by centrifugation at 3000 g for 5 min at 4°C. Reaction mix was mixed with coloring solution (35 mM ammonium molybdate, 10 mM zinc acetate, 10% ascorbic acid, pH 5) in a 96-well plate before analysis using a spectrometer (wavelength 700 nm).

[4] = test system: endogenous CK1 / CK1 sensor in HEK293T cells; assay: CK1 FRET biosensor, microplate reader FRET/CFP ratio; assay type: cell-based, human; conditions: HEK293T, n=3
Method: HEK293T cells were seeded at a density of 20,000 cells/well on 96-well black microplates (PS, μClear, clear bottom, chimney well, Greiner No. 655090). Transfection was performed as described above. Unless indicated otherwise, the respective cell populations were transfected with 50-100 ng CK1 FRET biosensor, 100 ng regulator (i.e. N-Flag DDX3X) and 1-10 ng kinase (i.e. N-Flag CK1ε). Either empty pCS2 N-Flag vector or luciferase were used to transfect the same amount of DNA in every well. Generally, the different samples were run in triplicate for each individual experiment. […]
Where applicable, the small-molecule CK1 inhibitor D4476 (BioVision) was added to the cells 2-4 h prior to the analysis. […] Analysis was performed 48-60 h after transfection on an Infinite M1000 PRO microplate reader (Tecan) by exciting CFP with a wavelength of 433 nm and measuring the resulting emission at 460-600 nm in 2 nm increments. Fluorometric spectra were background subtracted with spectra recorded from wells with non-transfected cells. Resulting FRET/CFP ratios were calculated by dividing the intensity values at the respective peaks (478 nm for CFP, 528 nm for YFP) and analyzed essentially as described ([Fritz et al., 2013]). […]

[5] = test system: Dvl phosphorylation in HEK293T cells; assay: Dvl phosphorylation shift on Western blot; assay type: cell-based, human; conditions: 50 or 100 ng Flag-DDX3X DNA

B1: His-DDX3X^414-582: C-terminal helicase domain of DDX3X (aa 414–582), 6× histidine tag (protein)
chain: NITQKVVWVEESDKRSFLLDLLNATGKDSLTLVFVETKKGADSLEDFLYHEGYACTSIHGDRSQRDREEALHQFRSGKSPILVATAVAARGLDISNVKHVINFDLPSDIEEYVHRIGRTGRVGNLGLATSFFNERNINITKDLLDLLVEAKQEVPSWLENMAYEHHYKG
modifications: left off: His, end not stated, kept
notes: C-terminal helicase domain of DDX3X (aa 414–582), 6× histidine tag
stimulation of CK1ε kinase activity in vitro [1]: sufficient to stimulate CK1ε∆C activity
Probability of phosphorylation, S429 (symbol) [2]: –
Probability of phosphorylation, S470 [2]: 100%
Probability of phosphorylation, S543 [2]: 92.7%
Probability of phosphorylation, T469 [2]: 100%

B2: His-DDX3X^168-582: DDX3X helicase core (aa 168–582), 6× histidine tag (protein, UniProt O00571 168-582, looked up, fragment)
chain: VEATGNNCPPHIESFSDVEMGEIIMGNIELTRYTRPTPVQKHAIPIIKEKRDLMACAQTGSGKTAAFLLPILSQIYSDGPGEALRAMKENGRYGRRKQYPISLVLAPTRELAVQIYEEARKFSYRSRVRPCVVYGGADIGQQIRDLERGCHLLVATPGRLVDMMERGKIGLDFCKYLVLDEADRMLDMGFEPQIRRIVEQDTMPPKGVRHTMMFSATFPKEIQMLARDFLDEYIFLAVGRVGSTSENITQKVVWVEESDKRSFLLDLLNATGKDSLTLVFVETKKGADSLEDFLYHEGYACTSIHGDRSQRDREEALHQFRSGKSPILVATAVAARGLDISNVKHVINFDLPSDIEEYVHRIGRTGRVGNLGLATSFFNERNINITKDLLDLLVEAKQEVPSWLENMAYEHHYKG
modifications: N-terminal 6xHis tag
notes: DDX3X helicase core (aa 168–582), 6× histidine tag
Probability of phosphorylation, S429 [2]: 100%
Probability of phosphorylation, S470 (symbol) [2]: –
Probability of phosphorylation, S543 [2]: 88.7%
Probability of phosphorylation, T469 (symbol) [2]: –

B3: CK1εΔC: CK1ε lacking the C-terminal 112 amino acids, constitutively active (protein, UniProt P49674 1-304, looked up, fragment)
chain: MELRVGNKYRLGRKIGSGSFGDIYLGANIASGEEVAIKLECVKTKHPQLHIESKFYKMMQGGVGIPSIKWCGAEGDYNVMVMELLGPSLEDLFNFCSRKFSLKTVLLLADQMISRIEYIHSKNFIHRDVKPDNFLMGLGKKGNLVYIIDFGLAKKYRDARTHQHIPYRENKNLTGTARYASINTHLGIEQSRRDDLESLGYVLMYFNLGSLPWQGLKAATKRQKYERISEKKMSTPIEVLCKGYPSEFSTYLNFCRSLRFDDKPDYSYLRQLFRNLFHRQGFSYDYVFDWNMLKFGAARNPEDV
modifications: His tag
effect of CK1ε protein on RNA-stimulated ATPase activity of DDX3X [3]: much less stimulated by dsRNA

B4: CK1εΔC^K38R: kinase-dead mutant of CK1εΔC (protein, UniProt P49674 1-416, looked up, variant K38R del305-416)
Casein kinase I isoform …: MELRVGNKYRLGRKIGSGSFGDIYLGANIASGEEVAIRLECVKTKHPQLHIESKFYKMMQGGVGIPSIKWCGAEGDYNVMVMELLGPSLEDLFNFCSRKFSLKTVLLLADQMISRIEYIHSKNFIHRDVKPDNFLMGLGKKGNLVYIIDFGLAKKYRDARTHQHIPYRENKNLTGTARYASINTHLGIEQSRRDDLESLGYVLMYFNLGSLPWQGLKAATKRQKYERISEKKMSTPIEVLCKGYPSEFSTYLNFCRSLRFDDKPDYSYLRQLFRNLFHRQGFSYDYVFDWNMLKFGAARNPEDV
modifications: His tag
effect of CK1ε protein on RNA-stimulated ATPase activity of DDX3X [3]: still allowed dsRNA stimulation of the ATPase activity

B5: DDX3X: human DEAD box RNA helicase DDX3X (UniProt O00571) (protein)
chain: MSHVAVENALGLDQQFAGLDLNSSDNQSGGSTASKGRYIPPHLRNREATKGFYDKDSSGWSSSKDKDAYSSFGSRSDSRGKSSFFSDRGSGSRGRFDDRGRSDYDGIGSRGDRSGFGKFERGGNSRWCDKSDEDDWSKPLPPSERLEQELFSGGNTGINFEKYDDIPVEATGNNCPPHIESFSDVEMGEIIMGNIELTRYTRPTPVQKHAIPIIKEKRDLMACAQTGSGKTAAFLLPILSQIYSDGPGEALRAMKENGRYGRRKQYPISLVLAPTRELAVQIYEEARKFSYRSRVRPCVVYGGADIGQQIRDLERGCHLLVATPGRLVDMMERGKIGLDFCKYLVLDEADRMLDMGFEPQIRRIVEQDTMPPKGVRHTMMFSATFPKEIQMLARDFLDEYIFLAVGRVGSTSENITQKVVWVEESDKRSFLLDLLNATGKDSLTLVFVETKKGADSLEDFLYHEGYACTSIHGDRSQRDREEALHQFRSGKSPILVATAVAARGLDISNVKHVINFDLPSDIEEYVHRIGRTGRVGNLGLATSFFNERNINITKDLLDLLVEAKQEVPSWLENMAYEHHYKGSSRGRSKSSRFSGGFGARDYRQSSGASSSSFSSSRASSSRSGGGGHGSSRGFGGGGYGGFYNSDGYGGNYNSQGVDWWGN
modifications: left off: Flag, N-terminal, kept
cooperation of DDX3X with co-expressed CK1 isoforms (FRET/CFP ratio) ([4]; CK1 sensor with CK1 isoform): predominantly synergized with limiting amounts of CK1ε rather than with CK1δ and CK1α isoforms
effect of co-expressed DDX3X on FRET/CFP ratio of CK1 sensor ([4]; DDX3X without added CK1): not sufficient to significantly enhance endogenous CK1 activity
stimulation of Dvl phosphorylation [5]: the wild-type protein alone could not
